{"source": "paper PMC4769881", "about": "(Molecular cell, 2016)", "proteins": {"B1": {"name": "NBB182 (human MLKL N-terminal helix bundle and whole brace, to residue 182), tagless purified protein (domain or fragment, UniProt Q8NB16 1-182, looked up)", "chain": "MENLKHIITLGQVIHKRCEEMKYCKKQCRRLGHRVLGLIKPLEMLQDQGKRSVPSEKLTTAMNRFKAALEEANGEIEKFSNRSNICRFLTASQDKILFKDVNRKLSDVWKELSLLLQVEQRMPVSPISQGASWAQEDQQDADEDRRAFQMLRRDNEKIEASLRRLEINMKEIKETLRQYLPP"}}, "target": "the molecule itself", "assay": "AUC"}
{"protein": "B1", "values": [{"measurement": "stoichiometry N", "value": 2}]}
